Source: the Human Domainome abundance scans (Beltran et al. 2025)
± gives the uncertainty stated by the source.

B1: Double-stranded RNA-binding protein Staufen homolog 1, residues 183 to 249; numbered along this chain, O95793 (parent)
chain: KSEISQVFEIALKRNLPVNFEVARESGPPHMKNFVTKVSVGEFVGEGEGKSKKISKKNAAIAVLEEL

Variants of: B1
Assay: abundance fitness (aPCA) (normalised: wild type 0, dead -1); higher = more abundant; growth selection in yeast, the domain comes from the species named
Settings: Homo sapiens

Variant | abundance fitness
KSEISQVFEIALKRNLPVNFEVARESGPPHMKNFVTKWSVGEFVGEGEGKSKKISKKNAAIAVLEEL [V38W] | -0.988 ± 0.092
KSEISQVFEIALKRNLPVNFEVARESGPPHMKNFVTKYSVGEFVGEGEGKSKKISKKNAAIAVLEEL [V38Y] | -0.774 ± 0.11
KSEISQVFEIALKRNLPVNFEVARESGPPHMKNFVTKVAVGEFVGEGEGKSKKISKKNAAIAVLEEL [S39A] | -0.067 ± 0.041
KSEISQVFEIALKRNLPVNFEVARESGPPHMKNFVTKVCVGEFVGEGEGKSKKISKKNAAIAVLEEL [S39C] | -0.064 ± 0.077
KSEISQVFEIALKRNLPVNFEVARESGPPHMKNFVTKVDVGEFVGEGEGKSKKISKKNAAIAVLEEL [S39D] | -0.542 ± 0.074
KSEISQVFEIALKRNLPVNFEVARESGPPHMKNFVTKVEVGEFVGEGEGKSKKISKKNAAIAVLEEL [S39E] | -0.146 ± 0.062
KSEISQVFEIALKRNLPVNFEVARESGPPHMKNFVTKVFVGEFVGEGEGKSKKISKKNAAIAVLEEL [S39F] | -0.099 ± 0.057
KSEISQVFEIALKRNLPVNFEVARESGPPHMKNFVTKVGVGEFVGEGEGKSKKISKKNAAIAVLEEL [S39G] | -0.55 ± 0.046
KSEISQVFEIALKRNLPVNFEVARESGPPHMKNFVTKVHVGEFVGEGEGKSKKISKKNAAIAVLEEL [S39H] | -0.081 ± 0.066
KSEISQVFEIALKRNLPVNFEVARESGPPHMKNFVTKVIVGEFVGEGEGKSKKISKKNAAIAVLEEL [S39I] | -0.12 ± 0.08
KSEISQVFEIALKRNLPVNFEVARESGPPHMKNFVTKVKVGEFVGEGEGKSKKISKKNAAIAVLEEL [S39K] | -0.05 ± 0.051
KSEISQVFEIALKRNLPVNFEVARESGPPHMKNFVTKVLVGEFVGEGEGKSKKISKKNAAIAVLEEL [S39L] | -0.267 ± 0.041
KSEISQVFEIALKRNLPVNFEVARESGPPHMKNFVTKVMVGEFVGEGEGKSKKISKKNAAIAVLEEL [S39M] | -0.056 ± 0.059
KSEISQVFEIALKRNLPVNFEVARESGPPHMKNFVTKVNVGEFVGEGEGKSKKISKKNAAIAVLEEL [S39N] | -0.138 ± 0.069
KSEISQVFEIALKRNLPVNFEVARESGPPHMKNFVTKVPVGEFVGEGEGKSKKISKKNAAIAVLEEL [S39P] | -0.703 ± 0.08
KSEISQVFEIALKRNLPVNFEVARESGPPHMKNFVTKVQVGEFVGEGEGKSKKISKKNAAIAVLEEL [S39Q] | -0.034 ± 0.054
KSEISQVFEIALKRNLPVNFEVARESGPPHMKNFVTKVRVGEFVGEGEGKSKKISKKNAAIAVLEEL [S39R] | 0.029 ± 0.035
KSEISQVFEIALKRNLPVNFEVARESGPPHMKNFVTKVVVGEFVGEGEGKSKKISKKNAAIAVLEEL [S39V] | -0.038 ± 0.046
KSEISQVFEIALKRNLPVNFEVARESGPPHMKNFVTKVWVGEFVGEGEGKSKKISKKNAAIAVLEEL [S39W] | -0.119 ± 0.053
KSEISQVFEIALKRNLPVNFEVARESGPPHMKNFVTKVYVGEFVGEGEGKSKKISKKNAAIAVLEEL [S39Y] | -0.051 ± 0.075

Variant | abundance fitness
KSEISQVFEIALKRNLPVNFEVARESGPPHMKNFVTKVSAGEFVGEGEGKSKKISKKNAAIAVLEEL [V40A] | -0.501 ± 0.051
KSEISQVFEIALKRNLPVNFEVARESGPPHMKNFVTKVSCGEFVGEGEGKSKKISKKNAAIAVLEEL [V40C] | -0.289 ± 0.1
KSEISQVFEIALKRNLPVNFEVARESGPPHMKNFVTKVSDGEFVGEGEGKSKKISKKNAAIAVLEEL [V40D] | -0.577 ± 0.08
KSEISQVFEIALKRNLPVNFEVARESGPPHMKNFVTKVSEGEFVGEGEGKSKKISKKNAAIAVLEEL [V40E] | -0.555 ± 0.058
KSEISQVFEIALKRNLPVNFEVARESGPPHMKNFVTKVSFGEFVGEGEGKSKKISKKNAAIAVLEEL [V40F] | -0.564 ± 0.088
KSEISQVFEIALKRNLPVNFEVARESGPPHMKNFVTKVSGGEFVGEGEGKSKKISKKNAAIAVLEEL [V40G] | -0.681 ± 0.062
KSEISQVFEIALKRNLPVNFEVARESGPPHMKNFVTKVSHGEFVGEGEGKSKKISKKNAAIAVLEEL [V40H] | -0.783 ± 0.14
KSEISQVFEIALKRNLPVNFEVARESGPPHMKNFVTKVSIGEFVGEGEGKSKKISKKNAAIAVLEEL [V40I] | -0.514 ± 0.072
KSEISQVFEIALKRNLPVNFEVARESGPPHMKNFVTKVSKGEFVGEGEGKSKKISKKNAAIAVLEEL [V40K] | -0.851 ± 0.078
KSEISQVFEIALKRNLPVNFEVARESGPPHMKNFVTKVSLGEFVGEGEGKSKKISKKNAAIAVLEEL [V40L] | -0.199 ± 0.041
KSEISQVFEIALKRNLPVNFEVARESGPPHMKNFVTKVSMGEFVGEGEGKSKKISKKNAAIAVLEEL [V40M] | -0.312 ± 0.061
KSEISQVFEIALKRNLPVNFEVARESGPPHMKNFVTKVSNGEFVGEGEGKSKKISKKNAAIAVLEEL [V40N] | -0.617 ± 0.092
KSEISQVFEIALKRNLPVNFEVARESGPPHMKNFVTKVSPGEFVGEGEGKSKKISKKNAAIAVLEEL [V40P] | -0.442 ± 0.057
KSEISQVFEIALKRNLPVNFEVARESGPPHMKNFVTKVSQGEFVGEGEGKSKKISKKNAAIAVLEEL [V40Q] | -0.542 ± 0.056
KSEISQVFEIALKRNLPVNFEVARESGPPHMKNFVTKVSRGEFVGEGEGKSKKISKKNAAIAVLEEL [V40R] | -0.811 ± 0.063
KSEISQVFEIALKRNLPVNFEVARESGPPHMKNFVTKVSSGEFVGEGEGKSKKISKKNAAIAVLEEL [V40S] | -0.703 ± 0.054
KSEISQVFEIALKRNLPVNFEVARESGPPHMKNFVTKVSTGEFVGEGEGKSKKISKKNAAIAVLEEL [V40T] | -0.541 ± 0.054
KSEISQVFEIALKRNLPVNFEVARESGPPHMKNFVTKVSWGEFVGEGEGKSKKISKKNAAIAVLEEL [V40W] | -1.3 ± 0.18
KSEISQVFEIALKRNLPVNFEVARESGPPHMKNFVTKVSYGEFVGEGEGKSKKISKKNAAIAVLEEL [V40Y] | -0.809 ± 0.12
KSEISQVFEIALKRNLPVNFEVARESGPPHMKNFVTKVSVCEFVGEGEGKSKKISKKNAAIAVLEEL [G41C] | -0.911 ± 0.14
